We go through 51 substances from patent US11292821B2, “Peptides and combination of peptides for use in immunotherapy against lung cancer, including NSCLC, SCLC and other cancers” (Immatics Biotechnologies GmbH, priority 2017, dated 2022).

One assay has as its target HLA-A*02 (Homo sapiens, UniProt P04439, D140Y/D185E/D98H/E176V/E277Q/G131W/G231S/I119V/I121R/I166T/I218V/N151K/N90K/P208A/P217A/Q86G/Q94H/R138H/R169H). The assay is described as follows: MHC binding assay (UV-ligand exchange, β2m ELISA).
A further assay deals with CD8+ T cells. The experiment in a line: In vitro T-cell priming assay with aAPCs (in vitro immunogenicity for MHC class I presented peptides). The class given is cell-based, human. The following applies: in vitro immunogenicity.
Another assay concerns the target HLA-A*03 (Homo sapiens, UniProt P04439). The assay is described as follows: MHC binding assay (UV-ligand exchange, β2m ELISA). (In an ELISA, binding on a coated surface is turned into a signal by an enzyme label.)
For another assay, the system named is HLA-B*08. The experiment in a line: MHC binding assay (UV-ligand exchange, β2m ELISA). Further details: species or system human.

Take “87 (TLYPYQISQL; listed as Homo sapiens) [compound 87]”: in the assay with HLA-A*02, the “Peptide exchange (peptide exchange yield, MHC class I binding score)” value (from here on “Peptide exchange”) was ““++++” (>75% = ++++)”. Besides, in the assay with CD8+ T cells (HLA A*02), the “Wells positive [%]” value is ““++” (20%-49% = ++)”.

For “88 (VQMVITEAQKV; listed as Homo sapiens) [compound 88]”, in the assay with HLA-A*02, the “Peptide exchange” value was ““++++” (>75% = ++++)”. Besides, the “Wells positive [%]” value in the assay with CD8+ T cells (HLA A*02) is ““++” (20%-49% = ++)”.

“89 (ILSTTMVTV; listed as Homo sapiens) [compound 89]”: the “Peptide exchange” value in the assay with HLA-A*02 is on record as ““++++” (>75% = ++++)”. Besides, the “Wells positive [%]” value with CD8+ T cells (HLA A*02) was ““+++” (50%-69% = +++)”.

Take “93 (TLQEKILQV; listed as Homo sapiens) [compound 93]”: the “Peptide exchange” value with HLA-A*02 was ““++++” (>75% = ++++)”. Besides, the “Wells positive [%]” value with CD8+ T cells (HLA A*02) is listed as ““+” (<20% = +)”.

On to “94 (VLPDIETLIGV; listed as Homo sapiens) [compound 94]”, for which, in the assay with HLA-A*02, the “Peptide exchange” value is listed as ““++++” (>75% = ++++)”. In the assay with CD8+ T cells (HLA A*02), the “Wells positive [%]” value is given as ““+++” (50%-69% = +++)”.

Turning to “95 (ITIGVLARV; listed as Homo sapiens) [compound 95]”, the “Peptide exchange” value in the assay with HLA-A*02 is reported as ““++++” (>75% = ++++)”. Also, in the assay with CD8+ T cells (HLA A*02), the “Wells positive [%]” value is recorded as ““++++” (>=70% = ++++)”.

Take “96 (HLVGGLHTV; listed as Homo sapiens) [compound 96]”: in the assay with HLA-A*02, the “Peptide exchange” value is reported as ““++++” (>75% = ++++)”. The “Wells positive [%]” value in the assay with CD8+ T cells (HLA A*02) is recorded as ““+++” (50%-69% = +++)”.

As to “97 (VLALVNSTV; listed as Homo sapiens) [compound 97]”, the “Peptide exchange” value with HLA-A*02 was ““++++” (>75% = ++++)”. The “Wells positive [%]” value with CD8+ T cells (HLA A*02) is listed as ““+++” (50%-69% = +++)”.

For “101 (FIISDWRFVL; listed as Homo sapiens) [compound 101]”, the “Peptide exchange” value with HLA-A*02 was ““+++” (>50 = +++)”. The “Wells positive [%]” value in the assay with CD8+ T cells (HLA A*02) is listed as ““+” (<20% = +)”.

In the case of “125 (VLQPFLPSI; listed as Homo sapiens) [compound 125]”, in the assay with HLA-A*02, the “Peptide exchange” value is on record as ““++++” (>75% = ++++)”. In addition, in the assay with CD8+ T cells (HLA A*02), the “Wells positive [%]” value is on record as ““++++” (>=70% = ++++)”.

For the substance “127 (GLDGSLVFL; listed as Homo sapiens) [compound 127]”, the “Peptide exchange” value with HLA-A*02 was ““++++” (>75% = ++++)”. For the same substance, the “Wells positive [%]” value in the assay on CD8+ T cells (HLA A*02) is recorded as ““++” (20%-49% = ++)”.

As for “128 (FLGTTPTL; listed as Homo sapiens) [compound 128]”, the “Peptide exchange” value in the assay with HLA-A*02 is recorded as ““++++” (>75% = ++++)”. Besides, the “Wells positive [%]” value in the assay on CD8+ T cells (HLA A*02) was ““+” (<20% = +)”.

Take “129 (VLYDKDAVYV; listed as Homo sapiens) [compound 129]”: the “Peptide exchange” value with HLA-A*02 is ““++++” (>75% = ++++)”. Moreover, in the assay on CD8+ T cells (HLA A*02), the “Wells positive [%]” value was ““++” (20%-49% = ++)”.

For “130 (NLWGGQGLLGV; listed as Homo sapiens) [compound 130]”, the “Peptide exchange” value with HLA-A*02 is listed as ““++++” (>75% = ++++)”. The “Wells positive [%]” value in the assay with CD8+ T cells (HLA A*02) is listed as ““+” (<20% = +)”.

“131 (LLKEFVQRV; listed as Homo sapiens) [compound 131]”: the “Peptide exchange” value in the assay with HLA-A*02 is recorded as ““++++” (>75% = ++++)”. In addition, the “Wells positive [%]” value in the assay on CD8+ T cells (HLA A*02) is listed as ““++++” (>=70% = ++++)”.

Regarding “132 (ALWLVDPLTV; listed as Homo sapiens) [compound 132]”, the “Peptide exchange” value with HLA-A*02 is recorded as ““++++” (>75% = ++++)”. Besides, the “Wells positive [%]” value in the assay with CD8+ T cells (HLA A*02) is given as ““+++” (50%-69% = +++)”.

For “133 (MTLPVDAVISV; listed as Homo sapiens) [compound 133]”, the “Peptide exchange” value with HLA-A*02 is ““++++” (>75% = ++++)”. The “Wells positive [%]” value in the assay on CD8+ T cells (HLA A*02) is given as ““+” (<20% = +)”.

Turning to “202 (KLAELEGALQK; listed as Homo sapiens) [compound 202]”, the “Peptide exchange” value with HLA-A*03 is on record as ““++++” (>75% = ++++)”.

On to “203 (KVKDTPGLGK; listed as Homo sapiens) [compound 203]”, for which the “Peptide exchange” value in the assay with HLA-A*03 is on record as ““++++” (>75% = ++++)”.

Take “204 (AVFDKFIRY; listed as Homo sapiens) [compound 204]”: the “Peptide exchange” value in the assay with HLA-A*03 is on record as ““++++” (>75% = ++++)”.

As to “205 (SLDGAARPK; listed as Homo sapiens) [compound 205]”, the “Peptide exchange” value with HLA-A*03 was ““++++” (>75% = ++++)”. Besides, the “Wells positive [%]” value in the assay on CD8+ T cells (HLA A*03) is ““++” (20%-49% = ++)”.

“206 (KLIDLSQVMY; listed as Homo sapiens) [compound 206]”: the “Peptide exchange” value in the assay with HLA-A*03 is reported as ““++++” (>75% = ++++)”.

Take “207 (RSFNGLLTMY; listed as Homo sapiens) [compound 207]”: the “Peptide exchange” value with HLA-A*03 is ““++++” (>75% = ++++)”.

On to “208 (GLASRILDAK; listed as Homo sapiens) [compound 208]”, for which the “Peptide exchange” value with HLA-A*03 is given as ““++++” (>75% = ++++)”. For the same substance, in the assay with CD8+ T cells (HLA A*03), the “Wells positive [%]” value is ““+” (<20% = +)”.

Take “209 (RTQIPMSEK; listed as Homo sapiens) [compound 209]”: the “Peptide exchange” value with HLA-A*03 was ““++++” (>75% = ++++)”. The “Wells positive [%]” value with CD8+ T cells (HLA A*03) is recorded as ““+” (<20% = +)”.

Regarding “210 (ATSGVPVYK; listed as Homo sapiens) [compound 210]”, the “Peptide exchange” value in the assay with HLA-A*03 is ““++++” (>75% = ++++)”. Besides, the “Wells positive [%]” value with CD8+ T cells (HLA A*03) is ““++++” (>=70% = ++++)”.

In the case of “211 (TVNPVAIHK; listed as Homo sapiens) [compound 211]”, the “Peptide exchange” value in the assay with HLA-A*03 is given as ““++++” (>75% = ++++)”.

Turning to “212 (KAYEQVMHY; listed as Homo sapiens) [compound 212]”, the “Peptide exchange” value with HLA-A*03 is given as ““++++” (>75% = ++++)”.

As to “214 (RTMSEAALVRK; listed as Homo sapiens) [compound 214]”, the “Peptide exchange” value with HLA-A*03 is ““++++” (>75% = ++++)”. Moreover, in the assay with CD8+ T cells (HLA A*03), the “Wells positive [%]” value was ““+” (<20% = +)”.

“215 (MMFSGPQILKL; listed as Homo sapiens) [compound 215]”: in the assay with HLA-A*03, the “Peptide exchange” value is on record as ““++++” (>75% = ++++)”.

In the case of “216 (KLYAWELAF; listed as Homo sapiens) [compound 216]”, in the assay with HLA-A*03, the “Peptide exchange” value was ““+++” (>50 = +++)”.

As to “217 (RILNQILYY; listed as Homo sapiens) [compound 217]”, the “Peptide exchange” value in the assay with HLA-A*03 is ““++++” (>75% = ++++)”.

With “218 (KTLVAELLILK; listed as Homo sapiens) [compound 218]”, in the assay with HLA-A*03, the “Peptide exchange” value was ““+++” (>50 = +++)”. Moreover, the “Wells positive [%]” value with CD8+ T cells (HLA A*03) is ““+” (<20% = +)”.

Consider “219 (RLRSSLVFK; listed as Homo sapiens) [compound 219]”, for which the “Peptide exchange” value in the assay with HLA-A*03 is reported as ““++++” (>75% = ++++)”.

In the case of “296 (MPMQDIKM; listed as Homo sapiens) [compound 296]”, the “Peptide exchange” value in the assay with HLA-B*08 is ““++++” (>75% = ++++)”.

Take “297 (RAQLKLVAL; listed as Homo sapiens) [compound 297]”: in the assay on HLA-B*08, the “Peptide exchange” value is given as ““++++” (>75% = ++++)”. The “Wells positive [%]” value in the assay with CD8+ T cells (HLA B*08) is ““+” (<20% = +)”.

In the case of “298 (FNKRKPLSL; listed as Homo sapiens) [compound 298]”, the “Peptide exchange” value in the assay with HLA-B*08 was ““+++” (>50 = +++)”. Further, in the assay on CD8+ T cells (HLA B*08), the “Wells positive [%]” value is given as ““+” (<20% = +)”.

“301 (YMHKLLVL; listed as Homo sapiens) [compound 301]”: the “Peptide exchange” value in the assay on HLA-B*08 is on record as ““++++” (>75% = ++++)”.

For “302 (HLLQKQTSI; listed as Homo sapiens) [compound 302]”, in the assay with HLA-B*08, the “Peptide exchange” value is recorded as ““+++” (>50 = +++)”.

On to “304 (ELKKLYCQI; listed as Homo sapiens) [compound 304]”, for which, in the assay on HLA-B*08, the “Peptide exchange” value is listed as ““++++” (>75% = ++++)”.

On to “309 (DAIQRKYSC; listed as Homo sapiens) [compound 309]”, for which, in the assay with HLA-B*08, the “Peptide exchange” value was ““+++” (>50 = +++)”.

For the substance “310 (LPPKKFVL; listed as Homo sapiens) [compound 310]”, the “Peptide exchange” value in the assay with HLA-B*08 is given as ““++++” (>75% = ++++)”.

Turning to “317 (LVKVKVLL; listed as Homo sapiens) [compound 317]”, the “Peptide exchange” value in the assay on HLA-B*08 is ““++++” (>75% = ++++)”.

With “392 (SLFKDQMEL; listed as Homo sapiens) [compound 392]”, in the assay with HLA-A*02, the “Peptide exchange” value is recorded as ““++++” (>75% = ++++)”. Besides, the “Wells positive [%]” value in the assay on CD8+ T cells (HLA A*02) is listed as ““+” (<20% = +)”.

Take “393 (ILLPYLQTL; listed as Homo sapiens) [compound 393]”: the “Peptide exchange” value with HLA-A*02 is on record as ““++++” (>75% = ++++)”. Moreover, the “Wells positive [%]” value with CD8+ T cells (HLA A*02) is ““+” (<20% = +)”.

With “453 (AINTSIKNK; listed as Homo sapiens) [compound 453]”, the “Peptide exchange” value with HLA-A*03 was ““++++” (>75% = ++++)”.

As to “454 (KVYTPSISK; listed as Homo sapiens) [compound 454]”, in the assay with HLA-A*03, the “Peptide exchange” value is recorded as ““++++” (>75% = ++++)”.

As for “455 (RIADIFVKK; listed as Homo sapiens) [compound 455]”, the “Peptide exchange” value in the assay with HLA-A*03 is ““++++” (>75% = ++++)”.

In the case of “456 (SMFTAILKK; listed as Homo sapiens) [compound 456]”, the “Peptide exchange” value with HLA-A*03 is given as ““++++” (>75% = ++++)”.

On to “457 (SINKPTSER; listed as Homo sapiens) [compound 457]”, for which the “Peptide exchange” value with HLA-A*03 is ““++++” (>75% = ++++)”.

In the case of “458 (GIADFVLKY; listed as Homo sapiens) [compound 458]”, the “Peptide exchange” value with HLA-A*03 is listed as ““++++” (>75% = ++++)”.
